In PMC10821409, “The transport activity of the multidrug ABC transporter BmrA does not require a wide separation of the nucleotide-binding domains” (The Journal of Biological Chemistry, 2023):

Target: the molecule itself
Test: cryo-EM structure; detergent-purified protein (DDM/cholate), apo, inward-facing state; C2 symmetry

B1: BmrA WT, homodimeric multidrug ABC transporter from Bacillus subtilis (natural protein)
chain: MPTKKQKSKSKLKPFFALVRRTNPSYGKLAFALALSVVTTLVSLLIPLLTKQLVDGFSMSNLSGTQIGLIALVFFVQAGLSAYATYALNYNGQKIISGLRELLWKKLIKLPVSYFDTNASGETVSRVTNDTMVVKELITTHISGFITGIISVIGSLTILFIMNWKLTLLVLVVVPLAALILVPIGRKMFSISRETQDETARFTGLLNQILPEIRLVKASNAEDVEYGRGKMGISSLFKLGVREAKVQSLVGPLISLVLMAALVAVIGYGGMQVSSGELTAGALVAFILYLFQIIMPMGQITTFFTQLQKSIGATERMIEILAEEEEDTVTGKQIENAHLPIQLDRVSFGYKPDQLILKEVSAVIEAGKVTAIVGPSGGGKTTLFKLLERFYSPTAGTIRLGDEPVDTYSLESWREHIGYVSQESPLMSGTIRENICYGLERDVTDAEIEKAAEMAYALNFIKELPNQFDTEVGERGIMLSGGQRQRIAIARALLRNPSILMLDEATSSLDSQSEKSVQQALEVLMEGRTTIVIAHRLSTVVDADQLLFVEKGEITGRGTHHELMASHGLYRDFAEQQLKMNADLENKAG
notes: BmrA, multidrug ABC transporter, Bacillus subtilis; hexa histidine-tagged pET23 BmrA; Residues 578 onward could not be modelled in PDB 8QOE; also called WT BmrA; WT protein; source: E. coli C41(DE3), purified in DDM/cholate (Ni-NTA)
B1: binds.
